Data from patent US20210355215A1.

Molecular target: BsAb CD3-BCMA (human)
Experiment: 1 mL CH1-XL column, purified BsAb 5 mg/ml load, residence time 4 min, 10% breakthrough

Sequence of BsAb CD3-BCMA (human) (heavy, as listed by the source, chain 1 of 3): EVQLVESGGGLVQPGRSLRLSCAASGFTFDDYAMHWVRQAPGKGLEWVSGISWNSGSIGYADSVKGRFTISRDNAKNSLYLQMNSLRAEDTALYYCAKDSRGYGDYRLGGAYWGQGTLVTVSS
Sequence of BsAb CD3-BCMA (human) (light, as listed by the source, chain 2 of 3): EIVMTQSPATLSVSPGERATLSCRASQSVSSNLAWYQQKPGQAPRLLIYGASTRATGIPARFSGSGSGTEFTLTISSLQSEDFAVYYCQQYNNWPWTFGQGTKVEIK
Sequence of BsAb CD3-BCMA (human) (heavy, as listed by the source, chain 3 of 3): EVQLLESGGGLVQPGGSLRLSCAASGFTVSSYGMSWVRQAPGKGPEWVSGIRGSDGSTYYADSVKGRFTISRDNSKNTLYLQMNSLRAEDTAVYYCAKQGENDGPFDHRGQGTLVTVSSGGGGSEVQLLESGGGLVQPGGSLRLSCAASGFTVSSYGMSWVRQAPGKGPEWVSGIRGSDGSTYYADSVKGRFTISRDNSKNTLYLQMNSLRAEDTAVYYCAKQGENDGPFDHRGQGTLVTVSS

dynamic binding capacity: 9.3 mg/mL
Substance: CaptureSelect CH1-XL affinity resin ligand (13 kDa llama heavy chain antibody fragment, Ig heavy chain CH1-specific nanobody) (VHH)
